The experiment deals with GST-tagged MERS-CoV papain-like protease (PLpro) (MERS-CoV) (UniProt K9N7C7). As to the kind of experiment: BLI.

Turning to “ubiquitin variant A46F-K48E-E64Y-R74N-G75S (UbV5) (from UniProt P0CG48 1-76) (designed binder)”, the equilibrium dissociation constant (Kd) (usually the equilibrium constant for the complex coming apart) was 0.00148 µM. That is a single-digit nanomolar value. Next, “ubiquitin variant A46F-K48E (UbV2) (from UniProt P0CG48 1-76) (designed binder)”: 0.22 µM; “ubiquitin variant A46F-K48E-E64Y (UbV3) (from UniProt P0CG48 1-76) (designed binder)”: 0.00277 µM; “ubiquitin variant A46F-K48E-G75R (from UniProt P0CG48 1-76) (designed binder)”: 11.4 µM.

These data come from PMC10274944.
